In patent publication US11819556B2, “Stabilized compositions of radionuclides and uses thereof” (RayzeBio, Inc., priority 2021, dated 2023):
Marks after values point to notes of the source that are not given here.

What was measured:
Assay type in all cases: physicochemical
[1] = DTPA concentration optimization: radio-TLC purity; details: 20 μCi/ml, 100 mM sodium ascorbate pH 5.80, 25° C.
Method: (§1) The mixture was kept at room temperature (25° C.). At different time points, radioactive components of the formulated dose were measured by radio-TLC as described in the table below: […]

[2] = Control formulation without excipient (WFI): radio-TLC purity; details: 0.02 mCi/ml; for free Actinium / fragments: 25° C.; for Percentage of ^225Ac present in [^225Ac]Ac-DOTA-TATE: pH 6.13, 25° C.
Method: The mixture was kept at room temperature (25° C.). At different time points, purity of [^225Ac]Ac-DOTA-TATE in the formulated dose were measured by radio-TLC as described in the table below: […]

[3] = Dextran ratio optimization: radio-TLC purity; details: 25 μCi/ml, 100 mM sodium ascorbate, 0.05 mg/ml DTPA, saline, pH 5.80, 25° C.
Method: as §1

Substance: (2,2′,2″-(10-(2-4(R)-1-(((4R,7S,10S,13R,16S,19R)-13-((1H-indol-3-yl)methyl)-10-(4-aminobutyl)-4-(((1S,2R)-1-carboxy-2-hydroxypropyl)carbamoyl)-16-(4-hydroxybenzyl)-7-((R)-1-hydroxyethyl)-6,9,12,15,18-pentaoxo-1,2-dithia-5,8,11,14,17-pentaazacycloicosan-19-yl)amino)-1-oxo-3-phenylpropan-2-yl)amino)-2-oxoethyl)-1,4,7,10-tetraazacyclododecane-1,4,7-triyl)triacetate; actinium-225(3+)) [[^225Ac]Ac-DOTA-TATE]
- Percentage of ^225Ac present in [^225Ac]Ac-DOTA-TATE ([1]; DTPA 0.05 mg/ml, 0 hour): 98.74%
- Percentage of ^225Ac present in [^225Ac]Ac-DOTA-TATE ([1]; DTPA 0.05 mg/ml, 24 hours): 97.67%
- Percentage of ^225Ac present in [^225Ac]Ac-DOTA-TATE ([1]; DTPA 0.05 mg/ml, 48 hours): 95.34%
- Percentage of ^225Ac present in [^225Ac]Ac-DOTA-TATE ([1]; DTPA 0.05 mg/ml, 72 hours): 94.62%
- Percentage of ^225Ac present in [^225Ac]Ac-DOTA-TATE ([1]; DTPA 0.1 mg/ml, 0 hour): 97.52%
- Percentage of ^225Ac present in [^225Ac]Ac-DOTA-TATE ([1]; DTPA 0.1 mg/ml, 24 hours): 98.30%
- Percentage of ^225Ac present in [^225Ac]Ac-DOTA-TATE ([1]; DTPA 0.1 mg/ml, 48 hours): 96.74%
- Percentage of ^225Ac present in [^225Ac]Ac-DOTA-TATE ([1]; DTPA 0.1 mg/ml, 72 hours): 94.36%
- Percentage of ^225Ac present in [^225Ac]Ac-DOTA-TATE ([1]; DTPA 0.3 mg/ml, 0 hour): 98.06%
- Percentage of ^225Ac present in [^225Ac]Ac-DOTA-TATE ([1]; DTPA 0.3 mg/ml, 24 hours): 97.19%
- Percentage of ^225Ac present in [^225Ac]Ac-DOTA-TATE ([1]; DTPA 0.3 mg/ml, 48 hours): 96.11%
- Percentage of ^225Ac present in [^225Ac]Ac-DOTA-TATE ([1]; DTPA 0.3 mg/ml, 72 hours): 93.60%
- Percentage of ^225Ac present in [^225Ac]Ac-DOTA-TATE ([1]; DTPA 0.5 mg/ml, 0 hour): 98.40%
- Percentage of ^225Ac present in [^225Ac]Ac-DOTA-TATE ([1]; DTPA 0.5 mg/ml, 24 hours): 97.28%
- Percentage of ^225Ac present in [^225Ac]Ac-DOTA-TATE ([1]; DTPA 0.5 mg/ml, 48 hours): 95.07%
- Percentage of ^225Ac present in [^225Ac]Ac-DOTA-TATE ([1]; DTPA 0.5 mg/ml, 72 hours): 92.73%
- Percentage of ^225Ac present in [^225Ac]Ac-DOTA-TATE ([1]; DTPA 0.8 mg/ml, 0 hour): 98.02%
- Percentage of ^225Ac present in [^225Ac]Ac-DOTA-TATE ([1]; DTPA 0.8 mg/ml, 24 hours): 97.60%
- Percentage of ^225Ac present in [^225Ac]Ac-DOTA-TATE ([1]; DTPA 0.8 mg/ml, 48 hours): 96.57%
- Percentage of ^225Ac present in [^225Ac]Ac-DOTA-TATE ([1]; DTPA 0.8 mg/ml, 72 hours): 93.11%
- Percentage of ^225Ac present in [^225Ac]Ac-DOTA-TATE ([1]; DTPA 1.0 mg/ml, 0 hour): 98.25%
- Percentage of ^225Ac present in [^225Ac]Ac-DOTA-TATE ([1]; DTPA 1.0 mg/ml, 24 hours): 97.37%
- Percentage of ^225Ac present in [^225Ac]Ac-DOTA-TATE ([1]; DTPA 1.0 mg/ml, 48 hours): 96.14%
- Percentage of ^225Ac present in [^225Ac]Ac-DOTA-TATE ([1]; DTPA 1.0 mg/ml, 72 hours): 94.14%
- free Actinium ([2]; 0 hour): 0.5% free Actinium
- Percentage of ^225Ac present in [^225Ac]Ac-DOTA-TATE ([2]; 0 hour): 99.5%
- fragments ([2]; 24 hours): 3.2%
- free Actinium ([2]; 24 hours): 2.0%
- Percentage of ^225Ac present in [^225Ac]Ac-DOTA-TATE ([2]; 24 hours): 94.8%
- fragments ([2]; 48 hours): 4.8%
- free Actinium ([2]; 48 hours): 3.5%
- Percentage of ^225Ac present in [^225Ac]Ac-DOTA-TATE ([2]; 48 hours): 91.8%
- fragments ([2]; 72 hours): 7.7%
- free Actinium ([2]; 72 hours): 8.8%
- Percentage of ^225Ac present in [^225Ac]Ac-DOTA-TATE ([2]; 72 hours): 83.5%
- fragments ([2]; 96 hours): 11.8%
- free Actinium ([2]; 96 hours): 9.2%
- Percentage of ^225Ac present in [^225Ac]Ac-DOTA-TATE ([2]; 96 hours): 79.1%
- Percentage of ^225Ac present in [^225Ac]Ac-DOTA-TATE ([3]; Dextran 0% w/w, 0 hour): 99.90%
- Percentage of ^225Ac present in [^225Ac]Ac-DOTA-TATE ([3]; Dextran 0% w/w, 24 hours): 99.42%
- Percentage of ^225Ac present in [^225Ac]Ac-DOTA-TATE ([3]; Dextran 0% w/w, 48 hours): 98.73%
- Percentage of ^225Ac present in [^225Ac]Ac-DOTA-TATE ([3]; Dextran 0% w/w, 72 hours): 97.77%
- Percentage of ^225Ac present in [^225Ac]Ac-DOTA-TATE ([3]; Dextran 0% w/w, 96 hours): 97.13%
- Percentage of ^225Ac present in [^225Ac]Ac-DOTA-TATE ([3]; Dextran 0% w/w, 120 hours, non-homogeneous sampling): 98.09* %
- Percentage of ^225Ac present in [^225Ac]Ac-DOTA-TATE ([3]; Dextran 0% w/w, 144 hours): 94.64%
- Percentage of ^225Ac present in [^225Ac]Ac-DOTA-TATE ([3]; Dextran 3% w/w, 0 hour): 99.86%
- Percentage of ^225Ac present in [^225Ac]Ac-DOTA-TATE ([3]; Dextran 3% w/w, 24 hours): 98.62%
- Percentage of ^225Ac present in [^225Ac]Ac-DOTA-TATE ([3]; Dextran 3% w/w, 48 hours): 98.48%
- Percentage of ^225Ac present in [^225Ac]Ac-DOTA-TATE ([3]; Dextran 3% w/w, 72 hours): 97.91%
- Percentage of ^225Ac present in [^225Ac]Ac-DOTA-TATE ([3]; Dextran 3% w/w, 96 hours): 96.48%
- Percentage of ^225Ac present in [^225Ac]Ac-DOTA-TATE ([3]; Dextran 3% w/w, 120 hours): 96.67%
- Percentage of ^225Ac present in [^225Ac]Ac-DOTA-TATE ([3]; Dextran 3% w/w, 144 hours): 95.77%
- Percentage of ^225Ac present in [^225Ac]Ac-DOTA-TATE ([3]; Dextran 6% w/w, 0 hour): 100%
- Percentage of ^225Ac present in [^225Ac]Ac-DOTA-TATE ([3]; Dextran 6% w/w, 24 hours): 99.08%
- Percentage of ^225Ac present in [^225Ac]Ac-DOTA-TATE ([3]; Dextran 6% w/w, 48 hours): 98.83%
- Percentage of ^225Ac present in [^225Ac]Ac-DOTA-TATE ([3]; Dextran 6% w/w, 72 hours): 98.29%
- Percentage of ^225Ac present in [^225Ac]Ac-DOTA-TATE ([3]; Dextran 6% w/w, 96 hours): 96.99%
- Percentage of ^225Ac present in [^225Ac]Ac-DOTA-TATE ([3]; Dextran 6% w/w, 120 hours): 97.00%
